In this assay the test system is M. catarrhalis ATCC 49143. As to the kind of experiment: Proteolytic digestion of intact cells followed by hemagglutination test. It is filed as cell-based, Moraxella catarrhalis. To be noted: intact cells digested 1 hour at room temperature. On the procedure:
All proteases were obtained from Sigma Chemicals (St. Louis, Mo.). Immediately following the protease treatment, cells were washed once in PBS and resuspended in 1 ml of PBS and the hemagglutinating activity was tested. Additionally, protease-treated bacterial cells were extracted with octyl glucoside so the outer membrane proteins could be resolved to identify specific proteins that may have been digested by the proteases.

B1: proteinase K: Protease from Sigma Chemicals (protein, UniProt P06873 106-384, looked up)
Proteinase K: AAQTNAPWGLARISSTSPGTSTYYYDESAGQGSCVYVIDTGIEASHPEFEGRAQMVKTYYYSSRDGNGHGTHCAGTVGSRTYGVAKKTQLFGVKVLDDNGSGQYSTIIAGMDFVASDKNNRNCPKGVVASLSLGGGYSSSVNSAAARLQSSGVMVAVAAGNNNADARNYSPASEPSVCTVGASDRYDRRSSFSNYGSVLDIFGPGTSILSTWIGGSTRSISGTSMATPHVAGLAAYLMTLGKTTAASACRYIADTANKGDLSNIPFGTVNLLAYNNYQA
For B1, the “Effect of protease treatment on hemagglutination activity” value is “destroyed the hemagglutination activity”.

The values are drawn from patent US7128910B2, “Moraxella catarrahalis outer membrane protein-106 polypeptide, gene sequences and uses thereof” (priority 1996, dated 2006).
